Assays:
[1] = target: SpyCatcher002; assay: 0.5 µM each, PBS pH 7.5, 25 °C, SDS-PAGE with Coomassie staining (FIG. 15A)
Target sequence in this assay (chain, as listed by the source): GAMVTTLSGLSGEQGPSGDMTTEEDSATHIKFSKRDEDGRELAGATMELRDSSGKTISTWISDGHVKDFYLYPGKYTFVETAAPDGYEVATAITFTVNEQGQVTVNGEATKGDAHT

[2] = target: T1, AP-SpyTag002-MBP; assay: 0.5 µM each, PBS pH 7.5, 25 °C, SDS-PAGE with Coomassie staining (FIG. 16)
T1 construct: not shown: AP peptide tag for site-specific biotinylation; only primer DNA is printed for it

SpyTag002 T3H-MBP
percent increase in activity against SpyTag002 (SEQ ID NO: 3) [1]: 35%

B1: SpyCatcher002 D5A variant with proline at position 92 and aspartic acid at position 100 (SEQ ID NO:47) (designed binder)
chain: GAMVATLSGLSGEQGPSGDMTTEEDSATHIKFSKRDEDGRELAGATMELRDSSGKTISTWISDGHVKDFYLYPGKYTFVETAAPDGYEVATPITFTVNEDGQVTVNGEATKGDAHT
reaction rate (second-order rate constant) [2]: 20300 M⁻¹ s⁻¹

B2: SpyCatcher002 D5A variant with aspartic acid at position 100 (SEQ ID NO:46) (designed binder)
chain: GAMVATLSGLSGEQGPSGDMTTEEDSATHIKFSKRDEDGRELAGATMELRDSSGKTISTWISDGHVKDFYLYPGKYTFVETAAPDGYEVATAITFTVNEDGQVTVNGEATKGDAHT
reaction rate (second-order rate constant) [2]: 15500 M⁻¹ s⁻¹

B3: SpyCatcher002 D5A variant with proline at position 92 (SEQ ID NO:45) (designed binder)
chain: GAMVATLSGLSGEQGPSGDMTTEEDSATHIKFSKRDEDGRELAGATMELRDSSGKTISTWISDGHVKDFYLYPGKYTFVETAAPDGYEVATPITFTVNEQGQVTVNGEATKGDAHT
reaction rate (second-order rate constant) [2]: 14000 M⁻¹ s⁻¹

From patent publication US20220119459A1 (OXFORD UNIVERSITY INNOVATION, published 2022)
